Test results published in US20090192084A1.

Tests used:
endogenous UFD1 (human) = target: T1, endogenous UFD1 (human) (UniProt Q92890); assay: Flag co-IP, 293 cells, MudPIT MS
T1 sequence (looked up): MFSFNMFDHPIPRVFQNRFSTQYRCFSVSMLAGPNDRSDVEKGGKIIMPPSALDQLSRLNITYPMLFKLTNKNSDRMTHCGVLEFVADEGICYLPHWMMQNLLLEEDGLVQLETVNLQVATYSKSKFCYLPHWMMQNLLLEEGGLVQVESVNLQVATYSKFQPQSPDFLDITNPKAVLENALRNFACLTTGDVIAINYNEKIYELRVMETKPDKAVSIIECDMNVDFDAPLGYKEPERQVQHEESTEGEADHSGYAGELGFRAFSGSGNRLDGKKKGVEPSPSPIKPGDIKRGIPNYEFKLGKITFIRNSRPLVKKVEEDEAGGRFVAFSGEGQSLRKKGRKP

[1] = target: Galectin-3 binding protein. LG3BP (human) (UniProt Q08380); assay: Flag co-IP, MudPIT MS, MG132
UBR1 (human) = UBR1 (human) (UniProt Q8IWV7); assay: Flag co-IP, MudPIT MS, MG132
[2] = target: RING finger protein 126. RNE126 (human) (UniProt Q9BV68); assay: Flag co-IP, MudPIT MS, MG132
Cullin 3 (human) = Cullin 3 (human) (UniProt Q13618); assay: Flag co-IP, MudPIT MS, MG132
[3] = target: Bromodomain and WD-repeat domain-containing protein 2, WDR 1 I (human) (UniProt Q9BZH6); assay: Flag co-IP, MudPIT MS, MG132
[4] = target: CUL3-interacting protein I. KLHL12 (human) (UniProt Q53G59); assay: Flag co-IP, MudPIT MS, MG132
[5] = target: Kelch-like protein 22. KLEIL22 (human) (UniProt Q53GT1); assay: Flag co-IP, MudPIT MS, MG132
[6] = target: BTB and Kelch domain-containing protein 2, KLHL13 (human) (UniProt Q9P2N7); assay: Flag co-IP, MudPIT MS, MG132
[7] = target: Kelch domain-containing protein 2, KLDC2 (human) (UniProt Q9Y2U9); assay: Flag co-IP, MudPIT MS, MG132
[8] = target: CUL4- and DDB I-associated WDR protein 2, WDR26 (human) (UniProt Q9H7D7); assay: Flag co-IP, MudPIT MS, MG132
Cullin 4B (human) = Cullin 4B (human) (UniProt Q13620); assay: Flag co-IP, MudPIT MS, MG132
[9] = target: E3 ubiquitin-protein ligase Topors (human) (UniProt Q9NS56); assay: Flag co-IP, MudPIT MS, MG132
Elongin B (human) = Elongin B (human) (UniProt Q15370); assay: Flag co-IP, MudPIT MS, MG132
[10] = target: Kelch domain-containing protein 3, KLDC3 (human) (UniProt Q9BQ90); assay: Flag co-IP, MudPIT MS, MG132
[11] = target: DDB1- and CUL4-associated factor I. VprBP (human) (UniProt Q9Y4B6); assay: Flag co-IP, MudPIT MS, MG132
[12] = target: RING-box protein 1, RBX1 (human) (UniProt P62877); assay: Flag co-IP, MudPIT MS, MG132
[13] = target: Von Hippel-Lindau disease tumor suppressor, VHL (human) (UniProt P40337); assay: Flag co-IP, MudPIT MS, MG132
Cullin 1 (human) = Cullin 1 (human) (UniProt Q13616); assay: Flag co-IP, MudPIT MS, MG132
Praja 2 (human) = Praja 2 (human) (UniProt O43164); assay: Flag co-IP, MudPIT MS, MG132
[14] = target: Ubiquitin conjugation factor E4 B, UBE4B (Ufd2ortholog) (human) (UniProt O95155); assay: Flag co-IP, MudPIT MS, MG132

Sequence of Cullin 3 (human) (Q13618 2-768 limits assumed): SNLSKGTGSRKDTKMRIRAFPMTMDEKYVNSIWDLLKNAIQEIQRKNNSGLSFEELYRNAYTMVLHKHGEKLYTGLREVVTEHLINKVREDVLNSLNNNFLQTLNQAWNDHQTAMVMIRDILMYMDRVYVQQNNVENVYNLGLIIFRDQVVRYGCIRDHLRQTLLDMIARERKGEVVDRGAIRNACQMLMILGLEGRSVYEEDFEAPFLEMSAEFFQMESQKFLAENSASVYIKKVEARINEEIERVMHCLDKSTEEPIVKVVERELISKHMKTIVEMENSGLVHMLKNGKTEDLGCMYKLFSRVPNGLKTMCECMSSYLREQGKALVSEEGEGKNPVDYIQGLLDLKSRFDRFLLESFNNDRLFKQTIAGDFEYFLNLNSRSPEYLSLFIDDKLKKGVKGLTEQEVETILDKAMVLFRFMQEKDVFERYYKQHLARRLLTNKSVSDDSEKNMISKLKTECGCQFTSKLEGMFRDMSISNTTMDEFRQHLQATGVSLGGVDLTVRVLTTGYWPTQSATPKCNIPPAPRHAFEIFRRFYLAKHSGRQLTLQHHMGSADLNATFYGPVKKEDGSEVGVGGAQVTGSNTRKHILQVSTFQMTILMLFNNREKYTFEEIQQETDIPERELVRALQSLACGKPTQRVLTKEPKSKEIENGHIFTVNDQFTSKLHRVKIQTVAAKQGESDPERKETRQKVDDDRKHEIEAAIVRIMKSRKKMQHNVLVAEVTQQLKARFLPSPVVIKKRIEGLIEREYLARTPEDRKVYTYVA
Sequence of CUL4- and DDB I-associated WDR protein 2, WDR26 (human) (Q9H7D7 whole entry): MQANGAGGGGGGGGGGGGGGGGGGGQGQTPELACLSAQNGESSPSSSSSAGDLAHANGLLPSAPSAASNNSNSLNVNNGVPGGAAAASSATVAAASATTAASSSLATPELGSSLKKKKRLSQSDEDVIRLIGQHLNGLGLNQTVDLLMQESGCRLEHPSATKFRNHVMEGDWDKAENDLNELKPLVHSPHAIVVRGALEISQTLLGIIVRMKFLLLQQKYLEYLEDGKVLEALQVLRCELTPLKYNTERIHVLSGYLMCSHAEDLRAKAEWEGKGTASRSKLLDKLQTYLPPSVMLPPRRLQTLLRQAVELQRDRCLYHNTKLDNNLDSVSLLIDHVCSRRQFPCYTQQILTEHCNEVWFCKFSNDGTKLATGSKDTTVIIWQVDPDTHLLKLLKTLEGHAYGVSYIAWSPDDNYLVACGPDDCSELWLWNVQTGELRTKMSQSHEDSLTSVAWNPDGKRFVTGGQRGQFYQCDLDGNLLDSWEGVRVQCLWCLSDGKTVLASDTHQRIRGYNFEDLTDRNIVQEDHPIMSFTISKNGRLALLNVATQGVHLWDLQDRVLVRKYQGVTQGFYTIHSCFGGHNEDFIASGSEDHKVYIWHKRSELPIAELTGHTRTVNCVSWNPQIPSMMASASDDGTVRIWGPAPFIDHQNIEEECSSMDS
Sequence of Elongin B (human) (Q15370 other isoform, or with tags, fused parts or gaps limits assumed): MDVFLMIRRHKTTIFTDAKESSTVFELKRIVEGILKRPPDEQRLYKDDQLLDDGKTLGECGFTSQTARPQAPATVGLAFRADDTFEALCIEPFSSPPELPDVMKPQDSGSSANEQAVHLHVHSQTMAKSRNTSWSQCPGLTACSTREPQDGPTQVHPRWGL
Sequence of Cullin 1 (human) (Q13616 whole entry): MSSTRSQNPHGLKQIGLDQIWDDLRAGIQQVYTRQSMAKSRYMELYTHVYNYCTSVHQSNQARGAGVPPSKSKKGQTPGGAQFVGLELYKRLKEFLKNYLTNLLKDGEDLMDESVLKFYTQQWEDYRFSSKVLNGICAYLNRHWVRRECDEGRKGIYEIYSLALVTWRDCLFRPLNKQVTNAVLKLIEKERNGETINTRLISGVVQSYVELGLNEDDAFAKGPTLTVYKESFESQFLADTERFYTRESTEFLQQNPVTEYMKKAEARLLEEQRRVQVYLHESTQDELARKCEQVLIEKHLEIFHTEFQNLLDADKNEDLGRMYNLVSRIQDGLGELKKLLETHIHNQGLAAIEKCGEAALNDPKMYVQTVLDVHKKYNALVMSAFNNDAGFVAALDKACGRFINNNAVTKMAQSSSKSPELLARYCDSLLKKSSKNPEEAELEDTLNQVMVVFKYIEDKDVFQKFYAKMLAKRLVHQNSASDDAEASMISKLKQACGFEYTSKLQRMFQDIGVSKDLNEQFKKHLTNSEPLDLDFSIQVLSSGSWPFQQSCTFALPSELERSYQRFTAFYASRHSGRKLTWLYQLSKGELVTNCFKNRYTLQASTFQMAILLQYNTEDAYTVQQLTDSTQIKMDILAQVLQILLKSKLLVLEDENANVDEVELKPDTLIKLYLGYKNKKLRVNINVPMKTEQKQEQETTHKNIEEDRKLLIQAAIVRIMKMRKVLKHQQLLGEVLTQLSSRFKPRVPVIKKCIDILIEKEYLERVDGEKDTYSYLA
Sequence of CUL3-interacting protein I. KLHL12 (human) (Q53G59 whole entry): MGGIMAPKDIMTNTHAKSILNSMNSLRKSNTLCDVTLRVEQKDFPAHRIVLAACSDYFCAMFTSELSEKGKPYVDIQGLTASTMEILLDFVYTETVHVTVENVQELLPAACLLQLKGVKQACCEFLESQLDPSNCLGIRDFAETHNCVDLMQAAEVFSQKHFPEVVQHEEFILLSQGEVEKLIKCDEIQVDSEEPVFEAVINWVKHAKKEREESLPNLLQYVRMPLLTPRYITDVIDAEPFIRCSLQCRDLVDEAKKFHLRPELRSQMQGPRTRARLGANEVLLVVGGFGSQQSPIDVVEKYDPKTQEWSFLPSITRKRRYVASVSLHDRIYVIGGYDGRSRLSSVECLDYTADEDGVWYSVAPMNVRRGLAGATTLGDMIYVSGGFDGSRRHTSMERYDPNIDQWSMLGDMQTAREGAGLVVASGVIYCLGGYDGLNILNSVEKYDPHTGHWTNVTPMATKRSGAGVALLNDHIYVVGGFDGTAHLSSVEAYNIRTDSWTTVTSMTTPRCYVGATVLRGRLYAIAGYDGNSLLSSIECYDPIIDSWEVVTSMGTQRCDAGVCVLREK
Sequence of Kelch domain-containing protein 3, KLDC3 (human) (Q9BQ90 whole entry, the tested form may be a part): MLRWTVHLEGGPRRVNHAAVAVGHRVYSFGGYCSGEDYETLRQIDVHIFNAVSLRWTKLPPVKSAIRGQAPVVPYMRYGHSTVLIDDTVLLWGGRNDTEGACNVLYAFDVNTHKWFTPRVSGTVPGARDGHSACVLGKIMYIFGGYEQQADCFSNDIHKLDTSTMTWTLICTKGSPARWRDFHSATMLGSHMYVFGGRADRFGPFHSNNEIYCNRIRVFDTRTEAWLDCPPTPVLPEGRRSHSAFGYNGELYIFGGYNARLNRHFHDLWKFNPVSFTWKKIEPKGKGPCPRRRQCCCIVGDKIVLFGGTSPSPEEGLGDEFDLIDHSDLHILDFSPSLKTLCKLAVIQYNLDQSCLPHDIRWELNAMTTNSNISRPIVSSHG
Sequence of Kelch domain-containing protein 2, KLDC2 (human) (Q9Y2U9 whole entry, the tested form may be a part): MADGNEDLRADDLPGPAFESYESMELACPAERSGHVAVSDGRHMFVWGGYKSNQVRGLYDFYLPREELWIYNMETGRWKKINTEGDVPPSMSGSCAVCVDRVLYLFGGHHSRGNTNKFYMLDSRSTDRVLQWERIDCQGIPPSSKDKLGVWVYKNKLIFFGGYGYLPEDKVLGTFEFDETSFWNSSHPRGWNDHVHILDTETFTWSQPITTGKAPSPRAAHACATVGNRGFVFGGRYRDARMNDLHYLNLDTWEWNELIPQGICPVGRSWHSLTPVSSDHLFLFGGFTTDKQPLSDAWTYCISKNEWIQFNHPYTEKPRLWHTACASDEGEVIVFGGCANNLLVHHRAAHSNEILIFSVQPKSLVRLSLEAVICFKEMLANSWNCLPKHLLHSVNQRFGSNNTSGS
Sequence of E3 ubiquitin-protein ligase Topors (human) (Q9NS56 whole entry): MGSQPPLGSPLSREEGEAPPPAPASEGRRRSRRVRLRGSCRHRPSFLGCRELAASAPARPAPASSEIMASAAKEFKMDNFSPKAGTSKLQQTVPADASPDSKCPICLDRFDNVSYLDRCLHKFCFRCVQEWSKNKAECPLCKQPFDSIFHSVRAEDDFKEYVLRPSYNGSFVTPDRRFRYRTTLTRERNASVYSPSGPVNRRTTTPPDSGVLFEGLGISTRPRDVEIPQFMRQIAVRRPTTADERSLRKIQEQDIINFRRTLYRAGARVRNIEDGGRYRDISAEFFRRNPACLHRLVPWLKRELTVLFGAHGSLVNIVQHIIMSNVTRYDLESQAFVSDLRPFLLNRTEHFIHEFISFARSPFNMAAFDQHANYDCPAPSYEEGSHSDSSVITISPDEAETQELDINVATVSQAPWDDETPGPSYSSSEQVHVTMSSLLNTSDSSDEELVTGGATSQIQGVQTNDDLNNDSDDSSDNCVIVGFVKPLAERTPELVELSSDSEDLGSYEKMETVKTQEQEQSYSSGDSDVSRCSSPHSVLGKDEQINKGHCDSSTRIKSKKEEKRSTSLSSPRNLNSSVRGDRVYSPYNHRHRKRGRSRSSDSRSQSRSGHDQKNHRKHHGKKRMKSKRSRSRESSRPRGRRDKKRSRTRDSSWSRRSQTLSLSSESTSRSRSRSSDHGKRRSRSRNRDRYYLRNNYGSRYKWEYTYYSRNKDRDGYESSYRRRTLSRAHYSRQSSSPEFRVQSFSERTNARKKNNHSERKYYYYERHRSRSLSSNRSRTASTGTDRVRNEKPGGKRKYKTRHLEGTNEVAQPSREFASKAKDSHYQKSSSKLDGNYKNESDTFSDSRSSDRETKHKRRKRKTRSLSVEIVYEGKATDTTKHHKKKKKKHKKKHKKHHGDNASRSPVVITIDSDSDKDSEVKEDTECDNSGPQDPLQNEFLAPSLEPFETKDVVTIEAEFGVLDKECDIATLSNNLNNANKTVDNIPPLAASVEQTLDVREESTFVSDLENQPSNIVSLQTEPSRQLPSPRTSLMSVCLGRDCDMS
Sequence of Von Hippel-Lindau disease tumor suppressor, VHL (human) (P40337 whole entry): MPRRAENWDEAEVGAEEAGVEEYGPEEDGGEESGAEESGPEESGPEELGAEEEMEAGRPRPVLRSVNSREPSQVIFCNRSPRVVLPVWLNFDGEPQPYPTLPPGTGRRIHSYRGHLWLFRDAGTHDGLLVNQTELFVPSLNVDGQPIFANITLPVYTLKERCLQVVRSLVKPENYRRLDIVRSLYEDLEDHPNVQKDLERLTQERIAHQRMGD

Q: Which results are given for Flag-UBXD8 (from UniProt Q96CS3 1-445)?
A: sequence count (endogenous UFD1 (human)): 7; sequence coverage (endogenous UFD1 (human)): 29.4%; spectrum count (endogenous UFD1 (human)): 82; abundance factor (AF) [1]: 1.1; spectrum count [1]: 3; abundance factor (AF) (UBR1 (human)): 0.4; sequence count (UBR1 (human)): 3; spectrum count (UBR1 (human)): 3; abundance factor (AF) [2]: 1.4; sequence count [2]: 2; spectrum count [2]: 2

Q: Which abundance factor (AF) (Cullin 3 (human)) does the source give for Flag-UBXD7 (from UniProt O94888 1-489) here?
A: The abundance factor (AF) was 8.4.

Q: What about the sequence count (Cullin 3 (human)) of the same substance?
A: Its sequence count is 16.

Q: And the spectrum count (Cullin 3 (human))?
A: Its spectrum count is 30.

Q: And the abundance factor (AF) [3]?
A: Its abundance factor (AF) is 1.3.

Q: And the sequence count [3]?
A: Its sequence count is 5.

Q: And the spectrum count [3]?
A: Its spectrum count is 7.

Q: And the abundance factor (AF) [4]?
A: Its abundance factor (AF) is 1.2.

Q: What about the sequence count [4] of the same substance?
A: The sequence count was 3.

Q: And the spectrum count [4]?
A: The spectrum count was 3.

Q: And the abundance factor (AF) [5]?
A: Its abundance factor (AF) is 2.8.

Q: And the sequence count [5]?
A: Its sequence count is 8.

Q: And the spectrum count [5]?
A: The spectrum count was 8.

Q: What about the abundance factor (AF) [6] of the same substance?
A: Its abundance factor (AF) is 1.4.

Q: And the sequence count [6]?
A: Its sequence count is 4.

Q: And the spectrum count [6]?
A: Its spectrum count is 4.

Q: And the abundance factor (AF) [7]?
A: Its abundance factor (AF) is 3.2.

Q: And the sequence count [7]?
A: Its sequence count is 4.

Q: And the spectrum count [7]?
A: The spectrum count was 6.

Q: What about the abundance factor (AF) [8] of the same substance?
A: Its abundance factor (AF) is 7.2.

Q: What about the sequence count [8] of the same substance?
A: The sequence count was 9.

Q: What about the spectrum count [8] of the same substance?
A: Its spectrum count is 17.

Q: And the abundance factor (AF) (Cullin 4B (human))?
A: The abundance factor (AF) was 2.7.

Q: What about the sequence count (Cullin 4B (human)) of the same substance?
A: The sequence count was 10.

Q: What about the spectrum count (Cullin 4B (human)) of the same substance?
A: Its spectrum count is 11.

Q: And the abundance factor (AF) [9]?
A: The abundance factor (AF) was 0.6.

Q: What about the sequence count [9] of the same substance?
A: The sequence count was 3.

Q: What about the spectrum count [9] of the same substance?
A: Its spectrum count is 3.

Q: What about the abundance factor (AF) (Elongin B (human)) of the same substance?
A: Its abundance factor (AF) is 9.7.

Q: What about the sequence count (Elongin B (human)) of the same substance?
A: The sequence count was 5.

Q: And the spectrum count (Elongin B (human))?
A: Its spectrum count is 7.

Q: And the abundance factor (AF) [10]?
A: The abundance factor (AF) was 1.7.

Q: What about the sequence count [10] of the same substance?
A: Its sequence count is 3.

Q: And the spectrum count [10]?
A: The spectrum count was 3.

Q: And the abundance factor (AF) [11]?
A: Its abundance factor (AF) is 0.6.

Q: What about the sequence count [11] of the same substance?
A: The sequence count was 3.

Q: And the spectrum count [11]?
A: Its spectrum count is 4.

Q: And the abundance factor (AF) [12]?
A: Its abundance factor (AF) is 4.1.

Q: What about the sequence count [12] of the same substance?
A: The sequence count was 2.

Q: What about the spectrum count [12] of the same substance?
A: The spectrum count was 2.

Q: And the abundance factor (AF) [13]?
A: The abundance factor (AF) was 2.1.

Q: And the sequence count [13]?
A: Its sequence count is 2.

Q: And the spectrum count [13]?
A: Its spectrum count is 2.

Q: Which results are given for Flag-SAKS1 (from UniProt Q04323 1-297)?
A: abundance factor (AF) (Cullin 1 (human)): 1.5; sequence count (Cullin 1 (human)): 2; spectrum count (Cullin 1 (human)): 3; abundance factor (AF) (Praja 2 (human)): 1.1; sequence count (Praja 2 (human)): 2; spectrum count (Praja 2 (human)): 2; abundance factor (AF) [14]: 1.5; sequence count [14]: 5; spectrum count [14]: 5
